The values that follow come from US20090197798A1 (NATIONAL TAIWAN UNIVERSITY, published 2009).

One assay addresses T1, VEGFR2 (UniProt P35968 20-764, limits assumed).
T1 construct: also called Flk-1/KDR
Kind of assay: SPR (Biacore), receptor immobilized on sensor chip.

Assay [1] concerns the target T2, Recombinant soluble NRP1 (sNRP1) protein containing His6 and c-Myc domain tags (human, UniProt O14786-2 22-644, limits assumed).
T2 construct: Expressed in NIH-3T3 cells, purified from conditioned medium by ammonium sulfate precipitation and Ni-NTA; also called recombinant human sNRP1; recombinant NRP1; not shown: His6 and c-Myc tags
T2 sequence (looked up): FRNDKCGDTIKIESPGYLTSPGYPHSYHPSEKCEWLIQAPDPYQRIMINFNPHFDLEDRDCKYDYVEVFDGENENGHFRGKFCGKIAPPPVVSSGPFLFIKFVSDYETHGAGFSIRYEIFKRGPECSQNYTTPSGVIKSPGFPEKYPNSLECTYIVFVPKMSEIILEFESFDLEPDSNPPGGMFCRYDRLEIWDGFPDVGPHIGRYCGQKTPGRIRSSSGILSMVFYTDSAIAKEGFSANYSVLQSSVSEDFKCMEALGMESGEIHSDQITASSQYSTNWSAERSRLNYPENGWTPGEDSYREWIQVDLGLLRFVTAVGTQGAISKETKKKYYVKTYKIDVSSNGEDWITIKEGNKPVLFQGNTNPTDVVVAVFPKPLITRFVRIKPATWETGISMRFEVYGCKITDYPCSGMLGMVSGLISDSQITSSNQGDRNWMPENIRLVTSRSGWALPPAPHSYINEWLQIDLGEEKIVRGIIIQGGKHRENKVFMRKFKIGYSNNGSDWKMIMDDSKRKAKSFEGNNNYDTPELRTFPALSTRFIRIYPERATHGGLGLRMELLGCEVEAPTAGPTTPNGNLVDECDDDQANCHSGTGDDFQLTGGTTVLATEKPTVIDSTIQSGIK
Kind of assay: SPR (Biacore), NRP1 immobilized on CM5 chip, peptide injected, 25 C. How it is done: The binding kinetics of selected peptides with NRP1 were tested using the surface plasmon resonance based measuring system (Biacore AB) at 25° C. Recombinant NRP1 was immobilized on CM5 sensor chips by amine coupling at 400 response units using the amine coupling kit (Biacore) according to the manufacturer's instructions. Binding was detected in resonance units after injecting various concentrations of peptide at a flow rate of 30 μL/min. Sensograms of association and dissociation were recorded and analyzed using BIAevaluation software 3.0 (Biacore AB).
To identify whether any new signature motif can bind and inhibit NRP1-mediated invasion, mammalian cell-expressed NRP1 proteins were used as bait to screen a random cyclic 7-mer peptide library for NRP1-binding peptides. A Ph.D. C7C phage display library containing 10¹¹ random cyclic 7-amino acid peptides was applied for biopanning. After four rounds of screening, 63 clones were isolated. […] A consensus motif, -RRXR-, was found in nine clones by MULTALIN program alignment (Table 3). […] Surface plasmon resonance was used to measure the real-time association and dissociation of the binding of RRXR-containing peptides to NRP1. […] The slightly higher binding affinity of DG1 to NRP1 was due to a more favorable kₐ.

Assay [2] deals with T2, Recombinant soluble NRP1 (sNRP1) …. Kind of assay: SPR.

Bridges are numbered along the chain shown (N, C = ends). Where no end group is shown, it is not given here.

T1 sequence (P35968 20-764 limits assumed): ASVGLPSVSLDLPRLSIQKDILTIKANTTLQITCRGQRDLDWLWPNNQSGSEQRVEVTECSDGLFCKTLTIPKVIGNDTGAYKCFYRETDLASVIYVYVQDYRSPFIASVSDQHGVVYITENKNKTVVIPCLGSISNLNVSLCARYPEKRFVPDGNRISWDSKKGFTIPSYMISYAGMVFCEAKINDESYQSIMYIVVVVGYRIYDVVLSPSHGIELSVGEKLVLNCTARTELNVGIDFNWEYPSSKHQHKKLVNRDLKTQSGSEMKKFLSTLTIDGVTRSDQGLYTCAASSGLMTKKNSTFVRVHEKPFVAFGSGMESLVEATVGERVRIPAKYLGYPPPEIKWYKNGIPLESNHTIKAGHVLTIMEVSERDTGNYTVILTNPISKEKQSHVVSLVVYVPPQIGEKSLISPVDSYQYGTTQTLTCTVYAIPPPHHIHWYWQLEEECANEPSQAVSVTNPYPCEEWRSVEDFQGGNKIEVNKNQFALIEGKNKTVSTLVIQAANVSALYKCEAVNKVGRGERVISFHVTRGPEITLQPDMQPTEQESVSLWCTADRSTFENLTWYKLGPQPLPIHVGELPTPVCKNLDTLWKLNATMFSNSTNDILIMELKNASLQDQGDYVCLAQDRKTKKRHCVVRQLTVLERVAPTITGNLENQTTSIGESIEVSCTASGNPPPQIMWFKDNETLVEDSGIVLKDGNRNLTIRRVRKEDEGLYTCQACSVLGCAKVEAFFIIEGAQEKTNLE

B1: cyclic peptide DG1 (CRRPRMLTC) (peptide)
peptide: CRRPRMLTC
modifications: disulfide 1-9 (inferred)
notes: Chemically synthesized cyclic 9-mer (Digitalgene, Taiwan); Its core matches phage clone 4-1
For B1, the binding result in the assay with VEGFR2 is given as “no binding”. For the same molecule, in assay [1], the dissociation constant (Kd) stood at 1.4 µM, the koff amounted to 0.00172 s⁻¹ and the on-rate (kon) is 1230 M⁻¹ s⁻¹.

B2: Human VEGF165 (ligand, UniProt P15692-4 27-191, looked up)
chain: APMAEGGGQNHHEVVKFMDVYQRSYCHPIETLVDIFQEYPDEIEYIFKPSCVPLMRCGGCCNDEGLECVPTEESNITMQIMRIKPHQGQHIGEMSFLQHNKCECRPKKDRARQENPCGPCSERRKHLFVQDPQTCKCSCKNTDSRCKARQLELNERTCRCDKPRR
notes: Bought from PeproTech; also called hVEGF
For the molecule B2, in assay [2], the Kd worked out at 125 nM.

B3: cyclic peptide DG2 (CRSRRIRLC) (peptide)
peptide: CRSRRIRLC
modifications: disulfide 1-9 (inferred)
notes: Chemically synthesized cyclic 9-mer (Digitalgene, Taiwan); Its core matches phage clone 4-5
As for B3, the binding result with VEGFR2 is recorded as “no binding”. Further, in assay [1], the Kd came to 5.37 µM, the koff is 0.000663 s⁻¹ and the kon is 123 M⁻¹ s⁻¹.
